Columns and labels:
IFNγ (Homo sapiens) [1] = biological target: IFNγ (Homo sapiens) (UniProt P01579); test: cell-based assay; settings: cited from earlier work
IFNγ (Homo sapiens) [2] = biological target: IFNγ (Homo sapiens) (UniProt P01579); test: SPR; settings: cited from earlier work
[3] = biological target: IL8 (monomer) (Homo sapiens) (UniProt P10145); test: cell-based assay; settings: cited from earlier work
[4] = biological target: IL8 (dimer) (Homo sapiens) (UniProt P10145); test: cell-based assay; settings: cited from earlier work
Chain of IL8 (dimer) (Homo sapiens) (P10145 28-99): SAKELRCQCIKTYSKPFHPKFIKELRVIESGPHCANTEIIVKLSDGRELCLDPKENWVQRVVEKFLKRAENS

IL8 (Homo sapiens) = IL8 (Homo sapiens) (UniProt P10145); settings: cited from earlier work
Chain of IL8 (Homo sapiens) (P10145 28-99): as above

CCL25 (Homo sapiens) = CCL25 (Homo sapiens) (UniProt O15444); settings: cited from earlier work
Chain of CCL25 (Homo sapiens) (O15444 24-150): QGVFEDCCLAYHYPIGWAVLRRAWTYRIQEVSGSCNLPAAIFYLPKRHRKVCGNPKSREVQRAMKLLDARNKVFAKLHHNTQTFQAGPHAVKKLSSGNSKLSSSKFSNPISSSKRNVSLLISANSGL

IFNγR1^QTY–Fc = test: MST; 5 nM NT647-labelled receptor-Fc against a gradient of ligand; 1x PBS, 10 mM DTT, arginine at different concentrations; Monolith NT.115 pico, 25°C; data from the early T-Jump period; Kd model (law of mass action)
CCR9^QTY–Fc = CCR9^QTY–Fc (UniProt P51686); test: as above
IL10Rα^QTY–Fc = test: as above
IL4 (Homo sapiens) = IL4 (Homo sapiens) (UniProt P05112); test: SPR; settings: cited from earlier work
Chain of IL4 (Homo sapiens) (P05112 25-153): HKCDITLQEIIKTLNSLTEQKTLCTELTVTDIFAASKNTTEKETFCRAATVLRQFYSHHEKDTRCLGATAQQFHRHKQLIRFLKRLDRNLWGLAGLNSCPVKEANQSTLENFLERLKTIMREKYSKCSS

IFNλR1^QTY–Fc = test: MST; 5 nM NT647-labelled receptor-Fc against a gradient of ligand; 1x PBS, 10 mM DTT, arginine at different concentrations; Monolith NT.115 pico, 25°C; data from the early T-Jump period; Kd model (law of mass action)

Chain of CXCR2 (P25025 whole entry): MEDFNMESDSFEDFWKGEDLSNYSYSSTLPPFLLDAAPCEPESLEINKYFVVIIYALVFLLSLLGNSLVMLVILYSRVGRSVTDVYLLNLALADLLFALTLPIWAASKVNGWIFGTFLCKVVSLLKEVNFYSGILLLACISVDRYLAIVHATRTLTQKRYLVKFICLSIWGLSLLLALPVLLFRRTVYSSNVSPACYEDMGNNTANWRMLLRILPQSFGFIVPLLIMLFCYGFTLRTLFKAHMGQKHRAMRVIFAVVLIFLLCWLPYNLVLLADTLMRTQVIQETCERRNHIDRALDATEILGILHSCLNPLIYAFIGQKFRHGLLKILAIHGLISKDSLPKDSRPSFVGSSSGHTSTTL
Chain of IFNγ (Homo sapiens) (P01579 24-161): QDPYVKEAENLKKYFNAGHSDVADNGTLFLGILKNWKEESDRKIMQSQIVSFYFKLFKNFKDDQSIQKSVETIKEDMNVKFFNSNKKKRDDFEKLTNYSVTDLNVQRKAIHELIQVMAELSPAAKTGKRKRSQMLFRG
Chain of IFNγR1 (P15260 18-245): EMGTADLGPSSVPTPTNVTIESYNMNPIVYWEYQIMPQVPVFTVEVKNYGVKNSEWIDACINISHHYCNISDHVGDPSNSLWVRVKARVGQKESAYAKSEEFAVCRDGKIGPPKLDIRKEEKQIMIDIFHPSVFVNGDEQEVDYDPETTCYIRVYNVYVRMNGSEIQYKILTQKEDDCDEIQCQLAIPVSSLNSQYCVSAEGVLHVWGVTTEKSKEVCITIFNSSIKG
Chain of IFNγ (P01579 24-161): as the sequence (P01579 24-161) above
Chain of IL4Rα (P24394 26-232): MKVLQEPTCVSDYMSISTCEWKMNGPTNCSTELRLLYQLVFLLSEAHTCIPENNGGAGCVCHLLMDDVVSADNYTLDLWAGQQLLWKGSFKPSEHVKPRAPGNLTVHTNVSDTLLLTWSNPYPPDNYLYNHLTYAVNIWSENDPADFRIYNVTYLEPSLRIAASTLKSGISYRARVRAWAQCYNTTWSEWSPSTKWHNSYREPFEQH
Chain of CCL25 (O15444 24-150): as the sequence (O15444 24-150) above
Chain of IL10 (P22301 19-178): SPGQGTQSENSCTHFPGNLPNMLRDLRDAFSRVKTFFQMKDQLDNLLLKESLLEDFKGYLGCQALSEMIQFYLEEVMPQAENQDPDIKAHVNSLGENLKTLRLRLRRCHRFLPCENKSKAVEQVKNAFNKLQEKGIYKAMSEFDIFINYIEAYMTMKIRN
Chain of IL29 (Q8IU54 20-200): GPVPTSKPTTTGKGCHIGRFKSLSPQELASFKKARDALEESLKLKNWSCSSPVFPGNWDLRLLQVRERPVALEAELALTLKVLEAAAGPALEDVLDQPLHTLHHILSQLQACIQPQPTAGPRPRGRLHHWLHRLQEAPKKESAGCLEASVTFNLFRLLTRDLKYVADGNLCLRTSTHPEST
Chain of IL8 (monomer) (Homo sapiens) (P10145 28-99): as the sequence (P10145 28-99) above

IFNγR1 (from UniProt P15260)
Kd (IFNγ (Homo sapiens) [1]): 1.7 nM
Kd (IFNγ (Homo sapiens) [2]): 30.8 nM

CXCR2 (from UniProt P25025)
Kd [3]: 0.5 nM
Kd [4]: 8.5 nM
Kd (IL8 (Homo sapiens)): 70 nM

CCR9 (from UniProt P51686)
Kd (CCL25 (Homo sapiens)): 8 nM

IFNγ (from UniProt P01579 24-161) (ligand)
Kd (IFNγR1^QTY–Fc): 6.2 nM

CCL25 (from UniProt O15444 24-150) (ligand)
Kd (CCR9^QTY–Fc): 37.2 nM

IL10 (from UniProt P22301 19-178) (ligand)
Kd (IL10Rα^QTY–Fc): 1.6 nM

IL4Rα (from UniProt P24394)
Kd (IL4 (Homo sapiens)): 1 nM

IL29 (from UniProt Q8IU54 20-200) (ligand)
Kd (IFNλR1^QTY–Fc): 11.5 nM
